Results on one protein are retold here after article PMC2796084 (Biochemistry, 2009).

The data set concerns the molecule itself. The data set can be described thus: tryptophan fluorescence.

B1: FtsZ-L68W (natural protein, E. coli, UniProt P0A9A6 1-383, looked up)
chain: MFEPMELTNDAVIKVIGVGGGGGNAVEHMVRERIEGVEFFAVNTDAQALRKTAVGQTIQIGSGITKGWGAGANPEVGRNAADEDRDALRAALEGADMVFIAAGMGGGTGTGAAPVVAEVAKDLGILTVAVVTKPFNFEGKKRMAFAEQGITELSKHVDSLITIPNDKLLKVLGRGISLLDAFGAANDVLKGAVQGIAELITRPGLMNVDFADVRTVMSEMGYAMMGSGVASGEDRAEEAAEMAISSPLLEDIDLSGARGVLVNITAGFDLRLDEFETVGNTIRAFASDNATVVIGTSLDPDMNDELRVTVVATGIGMDKRPEITLVTNKQVQQPVMDRYQQHGMAPLTQEQKPVAKVVNDNAPQTAKEPDYLDIPAFLRKQAD
Turning to B1, the binding result is “binds”.
